# Measured values: patent US20150250848A1 (TRUSTEES OF DARTMOUTH COLLEGE, published 2015)
# Where no end group is shown, it is not given here. [ ]: non-standard residue; d: D form. The star is where a group is joined. Biotin = O=C1N[C@H]2[C@H](CS[C@H]2CCCCC(=O)*)N1; Ahx = NCCCCCC(=O)O
# T1: Tax-interacting protein-1 (TIP-1), recombinant, tag cleaved (UniProt O14907 1-124)
# T1 construct: Used for FP and crystallization; also called TIP-1 PDZ domain
# T1 sequence (looked up): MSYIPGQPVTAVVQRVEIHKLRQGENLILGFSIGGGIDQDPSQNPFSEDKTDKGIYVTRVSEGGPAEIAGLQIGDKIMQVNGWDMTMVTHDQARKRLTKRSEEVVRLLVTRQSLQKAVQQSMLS
# T2: His10 tagged (uncleaved) TIP-1 (UniProt O14907 1-124)
# T2 construct: also called TIP-1 (peptide array experiments); not shown: N-terminal His10 tag
# T2 sequence: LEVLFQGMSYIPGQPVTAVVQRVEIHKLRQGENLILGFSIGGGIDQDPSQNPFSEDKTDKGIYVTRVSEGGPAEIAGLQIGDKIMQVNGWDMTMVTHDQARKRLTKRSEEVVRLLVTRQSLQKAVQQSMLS
# B1: F*-iCAL42 (peptide)
# peptide: {Fluorescein-Ahx}-ANSRLPTSII
# notes: also called N-terminally fluoresceinated version of iCAL42
# B2: BT-iCAL42 (peptide)
# peptide: Biotin-W[dR]FKKANSRLPTSII
# notes: also called biotinylated analog of iCAL42
# B3: iCAL35 (peptide)
# peptide: Ac-WQTSII
# notes: the corresponding N-terminally acetylated peptides were bought; also called WQTSII; best known peptide hexamer
# Tests used:
# [1] = target: T3, CAL PDZ domain (CALP) (UniProt Q9HD26 278-362); test: calculated from Ki values (FP); reference: the same peptide with TIP-1
# [2] = target: T3, CAL PDZ domain (CALP); test: calculated from Ki values (FP); reference: the same peptide with the NHERF PDZ domains
# [3] = target: T3, CAL PDZ domain (CALP); test: fluorescence polarization; reference: iCAL42 with the CAL PDZ domain
# [4] = target: T1, Tax-interacting protein-1 (TIP-1), …; test: FP displacement assay
# Procedure: (§1) For TIP-1 peptide array experiments, His₁₀ tagged (uncleaved) protein was used to facilitate quantitation.
# In order to quantitate the impact of the P⁻⁵ Leu substitution and to assess inhibitory potential at high peptide concentrations, FP displacement assays were performed.
# [5] = target: T2, His10 tagged (uncleaved) TIP-1; test: CombLib peptide array
# From the text: as §1
# [6] = target: T3, CAL PDZ domain (CALP); test: calculated from Ki values (FP); reference: the same peptide with the highest affinity alternative among the NHERF and TIP-1 PDZ domains
# [7] = target: T3, CAL PDZ domain (CALP); test: FP competition assay
# [8] = target: T3, CAL PDZ domain (CALP); test: fluorescence polarization competition
# [9] = target: T1, Tax-interacting protein-1 (TIP-1), …; test: FP displacement assay, reporter F*-iCAL36
# [10] = target: T3, CAL PDZ domain (CALP); test: calculated from Ki values (FP); reference: the same peptide with N2P2
# [11] = target: T3, CAL PDZ domain (CALP); test: fluorescence polarization competition; reference: iCAL35 with CAL
# Procedure: (§2) The experimental inhibitory constants of top- and poorly-ranked peptide sequences from the K* CAL-CFTR design were experimentally determined. […] The corresponding N-terminally acetylated peptides were purchased from NEO Bio-Science (Cambridge, Mass.) and the Kᵢ values for the peptides were detected using fluorescence polarization. Briefly, the CAL PDZ domain was incubated with a labeled peptide of known binding affinity. Each peptide inhibitor was serially diluted and the protein-peptide mixture was added to each dilution. Finally, the amount of competitive inhibition was tracked using residual fluorescence polarization.
# (§3) The Kᵢ value for each peptide hexamer was determined using fluorescence polarization.
# [12] = target: T3, CAL PDZ domain (CALP); test: fluorescence polarization competition with a labeled peptide
# Procedure: as §2, §3
# [13] = target: T3, CAL PDZ domain (CALP); test: fluorescence polarization competition; reference: wild-type CFTR sequence with CAL
# Procedure: as §2, §3
binder,measurement,setting,value
ANSRWPTSII (also called PRC 36; iCa136) [iCAL36],ΔΔG,[1],1 kcal/mol
same,ΔΔG,[2],-3.3 kcal/mol
B1,fold enhancement in CAL affinity,[3],5 fold
ANSRLPTSII (also called unlabeled iCAL42) [iCAL42],binding result,[4],no binding (tested: up to millimolar peptide concentrations)
same,binding result,[5],no binding
same,ΔΔG,[6],-2.5 kcal/mol
ANSRAPTSII [P^-5 alanine mutant of iCAL36 (ANSRAPTSII)],binding result,[4],no binding
B2,Ki,[7],9.2 µM
B3,Ki,[8],14.8 µM
ANGLMQTSKL [somatostatin receptor subtype 5 (SSR5) C-terminal peptide],Ki,[9],130 µM
same,ΔΔGCAL-best,[10],0.1 kcal/mol
Ac-WQVTRV (also called WQVTRV) [kCAL01],fold improvement over iCAL35,[11],7 fold
same,Ki,[12],2.1 µM
same,fold higher affinity,[13],331 fold
